These results are taken from article PMC7324161, “Synergy between SIRT1 and SIRT6 helps recognize DNA breaks and potentiates the DNA damage response and repair in humans and mice” (eLife, 2020).

Where no end group is shown, it is not given here. [ ]: non-standard residue; d: D form. The star is where a group is joined. Biotin = O=C1N[C@H]2[C@H](CS[C@H]2CCCCC(=O)*)N1; pS = N[C@@H](COP(=O)(O)O)C(=O)O

As a reminder, the Kd is the free concentration of one partner at which half of the binding sites on the other are occupied at equilibrium, for simple one-to-one binding.

The subject of one data set is GST-SIRT6 K33R (human). The experiment in a line: fluorescence polarization. Conditions: Pull-down: 10 mM Tris-Cl pH 7.5, 100 mM NaCl, 0.01% NP40, 10% glycerol, 4 C overnight, 10 pmol DNA and 0.5 ug protein in 300 ul; FP buffer not in material. For orientation: In fluorescence polarisation assays a small probe gives low polarisation when free and higher when bound to something large.

A further data set deals with GST-SIRT6 WT (human). The experiment in a line: fluorescence polarization. The conditions noted are these: 20 nM FAM-DNA; Pull-down: 10 mM Tris-Cl pH 7.5, 100 mM NaCl, 0.01% NP40, 10% glycerol, 4 C overnight, 10 pmol DNA and 0.5 ug protein in 300 ul; FP buffer not in material.
For a further data set, the target named is T1, GST-SIRT6 K33R (human, UniProt Q8N6T7 1-355, K33R).
T1 construct: SIRT6, human, lysine 33 to arginine, as GST fusion
T1 sequence (Q8N6T7 whole entry K33R, the tested form may be a part): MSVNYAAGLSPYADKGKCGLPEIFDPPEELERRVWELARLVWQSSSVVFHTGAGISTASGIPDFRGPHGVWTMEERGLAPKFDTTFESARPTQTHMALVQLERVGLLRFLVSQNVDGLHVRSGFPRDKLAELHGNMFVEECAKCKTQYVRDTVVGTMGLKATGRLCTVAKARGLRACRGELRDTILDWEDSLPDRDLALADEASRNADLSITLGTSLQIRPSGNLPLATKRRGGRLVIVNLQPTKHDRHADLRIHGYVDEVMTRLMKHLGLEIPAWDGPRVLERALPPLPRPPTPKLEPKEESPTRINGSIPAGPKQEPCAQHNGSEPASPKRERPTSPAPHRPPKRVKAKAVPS
In words: pull-down; 1 μg biotinylated peptide with 1 μg GST-SIRT6 in 50 mM Tris-HCl, 200 mM NaCl, 0.05% NP40 overnight at 4°C; Streptavidin Sepharose beads 1 hr at 4°C; western blot. The conditions noted are these: both partners purified. In general terms: In western blotting, separated proteins are transferred to a membrane and probed.

Take FAM-labeled DNA duplex: the Kd in the data set with GST-SIRT6 K33R (human) turned out to be 105 nM; with GST-SIRT6 WT (human), 166 nM.

B1: biotin-labeled C-terminal γH2AX peptide (peptide)
peptide: Biotin-GKKATQA[pS]QEY
notes: C terminus of H2AX, printed as BGKKATQApSQEY; also called biotin-γH2AXp; source: synthetic peptide (GL Biochem, Shanghai)
Regarding B1, the binding result in the data set with GST-SIRT6 K33R is recorded as “binds”.
